Here are results for one protein from paper PMC10644982, “Targeting amyotrophic lateral sclerosis by neutralizing seeding-competent TDP-43 in CSF” (Brain Communications, 2023).

This data set deals with the molecule itself. In words: thioflavin T aggregation kinetics + electron microscopy; synthetic substrate peptide alone at a range of concentrations, seed-free or seeded with the final product of the 15 µM reaction; 40 mM Tris-HCl, 5 mM DTT, 0.002% SDS, 50 µM ThT, 40°C, intermittent shaking; fibrils seen by negative-stain transmission electron microscopy.

B1: TDP-43 peptide (352–414) (peptide)
peptide: NNQNQGNMQREPNQAFGSGNNSYSGSNSGAAIGWGSASNAGSGSGFNGGFGSSMDSKSSGWGM
notes: free N- and C-termini (H- ... -OH); also called assay substrate; SAA substrate
Take B1: the binding result is listed as “binds”.
